Results: patent US20240409618A1

Target: SARS-CoV-2 B.1.351 (Beta) spike on pseudotyped virus (SARS-CoV-2 B.1.351) (UniProt P0DTC2)
Assay: cell-based or functional assay

DMAb REGN10987 (FcWT) (antibody)
fold change of neutralization against B.1.351 pseudovirus relative to WA1/2020: < 3 fold
